Where a chain is given by its changes, count along the chain named. Numbers in names are those of the source.
T1: human ICOS (human, UniProt Q9Y6W8 21-199)
T1 construct: whole, on cells
T1 sequence (looked up): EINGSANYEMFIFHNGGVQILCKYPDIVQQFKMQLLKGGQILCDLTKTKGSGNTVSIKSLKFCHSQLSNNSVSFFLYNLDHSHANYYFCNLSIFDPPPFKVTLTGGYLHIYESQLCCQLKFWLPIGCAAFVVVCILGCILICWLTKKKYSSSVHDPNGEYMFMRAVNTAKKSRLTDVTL

B1: ICOSL ECD Truncation #4 with N52H/N57Y/Q100R/F172S and E200G, Fc fusion (Fc fusion)
chain: DTQEKEVRAMVGSDVELSCACPEGSRFDLNDVYVYWQTSESKTVVTYHIPQHSSLEYVDSRYRNRALMSPAGMLRGDFSLRLFNVTPQDEQKFHCLVLSRSLGFQEVLSVEVTLHVAANFSVPVVSAPHSPSQDELTFTCTSINGYPRPNVYWINKTDNSLLDQALQNDTVSLNMRGLYDVVSVLRIARTPSVNIGCCIGNVLLQQNGGGGSGGGGSEPKSSDKTHTCPPCPAPEAEGAPSVFLFPPKPKDTLMISRTPEVTCVVVDVSHEDPEVKFNWYVDGVEVHNAKTKPREEQYNSTYRVVSVLTVLHQDWLNGKEYKCKVSNKALPAPIEKTISKAKGQPREPQVYTLPPSREEMTKNQVSLTCLVKGFYPSDIAVEWESNGQPENNYKTTPPVLDSDGSFFLYSKLTVDKSRWQQGNVFSCSVMHEALHNHYTQKSLSLSPG
notes: Made in CHO cells; E200G is an additional mutation found later in the clone
B2: ICOSL ECD Truncation #8 with N207G/L208G and N52H/N57Y/Q100R/F172S, Fc fusion (Fc fusion)
chain: DTQEKEVRAMVGSDVELSCACPEGSRFDLNDVYVYWQTSESKTVVTYHIPQHSSLEYVDSRYRNRALMSPAGMLRGDFSLRLFNVTPQDEQKFHCLVLSRSLGFQEVLSVEVTLHVAANFSVPVVSAPHSPSQDELTFTCTSINGYPRPNVYWINKTDNSLLDQALQNDTVSLNMRGLYDVVSVLRIARTPSVNIGCCIENVLLQQGGTGGGGSGGGGSEPKSSDKTHTCPPCPAPEAEGAPSVFLFPPKPKDTLMISRTPEVTCVVVDVSHEDPEVKFNWYVDGVEVHNAKTKPREEQYNSTYRVVSVLTVLHQDWLNGKEYKCKVSNKALPAPIEKTISKAKGQPREPQVYTLPPSREEMTKNQVSLTCLVKGFYPSDIAVEWESNGQPENNYKTTPPVLDSDGSFFLYSKLTVDKSRWQQGNVFSCSVMHEALHNHYTQKSLSLSPG
notes: Made in CHO cells
B3: ICOSL ECD Truncation #5 with N52H/N57Y/Q100R/C198R (Fc fusion, not shown: a dimerising Fc or GST)
chain: DTQEKEVRAMVGSDVELSCACPEGSRFDLNDVYVYWQTSESKTVVTYHIPQHSSLEYVDSRYRNRALMSPAGMLRGDFSLRLFNVTPQDEQKFHCLVLSRSLGFQEVLSVEVTLHVAANFSVPVVSAPHSPSQDELTFTCTSINGYPRPNVYWINKTDNSLLDQALQNDTVFLNMRGLYDVVSVLRIARTPSVNIGCRIENVLLQQ
notes: Made in CHO cells
B4: ICOSL ECD Truncation #6 with N52H/N57Y/Q100R/F172S, Fc fusion (Fc fusion)
chain: DTQEKEVRAMVGSDVELSCACPEGSRFDLNDVYVYWQTSESKTVVTYHIPQHSSLEYVDSRYRNRALMSPAGMLRGDFSLRLFNVTPQDEQKFHCLVLSRSLGFQEVLSVEVTLHVAANFSVPVVSAPHSPSQDELTFTCTSINGYPRPNVYWINKTDNSLLDQALQNDTVSLNMRGLYDVVSVLRIARTPSVNIGCCIENVLLGGGGSGGGGSEPKSSDKTHTCPPCPAPEAEGAPSVFLFPPKPKDTLMISRTPEVTCVVVDVSHEDPEVKFNWYVDGVEVHNAKTKPREEQYNSTYRVVSVLTVLHQDWLNGKEYKCKVSNKALPAPIEKTISKAKGQPREPQVYTLPPSREEMTKNQVSLTCLVKGFYPSDIAVEWESNGQPENNYKTTPPVLDSDGSFFLYSKLTVDKSRWQQGNVFSCSVMHEALHNHYTQKSLSLSPG
notes: Made in CHO cells
B5: ICOSL ECD with N52H/N57Y/Q100R/C198R (Table 18) (Fc fusion, not shown: a dimerising Fc or GST)
chain: DTQEKEVRAMVGSDVELSCACPEGSRFDLNDVYVYWQTSESKTVVTYHIPQHSSLEYVDSRYRNRALMSPAGMLRGDFSLRLFNVTPQDEQKFHCLVLSRSLGFQEVLSVEVTLHVAANFSVPVVSAPHSPSQDELTFTCTSINGYPRPNVYWINKTDNSLLDQALQNDTVFLNMRGLYDVVSVLRIARTPSVNIGCRIENVLLQQNLTVGSQTGNDIGERDKITENPVSTGEKNAAT
notes: Made in CHO cells; May be the same construct as m37
B6: ICOSL ECD Truncation #6 with N52H/N57Y/Q100R/C198R (Fc fusion, not shown: a dimerising Fc or GST)
chain: DTQEKEVRAMVGSDVELSCACPEGSRFDLNDVYVYWQTSESKTVVTYHIPQHSSLEYVDSRYRNRALMSPAGMLRGDFSLRLFNVTPQDEQKFHCLVLSRSLGFQEVLSVEVTLHVAANFSVPVVSAPHSPSQDELTFTCTSINGYPRPNVYWINKTDNSLLDQALQNDTVFLNMRGLYDVVSVLRIARTPSVNIGCRIENVLL
notes: Made in CHO cells
B7: ICOSL ECD Truncation #7 with N52H/N57Y/Q100R/F172S and F83S, Fc fusion (Fc fusion)
chain: DTQEKEVRAMVGSDVELSCACPEGSRFDLNDVYVYWQTSESKTVVTYHIPQHSSLEYVDSRYRNRALMSPAGMLRGDFSLRLSNVTPQDEQKFHCLVLSRSLGFQEVLSVEVTLHVAANFSVPVVSAPHSPSQDELTFTCTSINGYPRPNVYWINKTDNSLLDQALQNDTVSLNMRGLYDVVSVLRIARTPSVNIGCCIENGGGGSGGGGSEPKSSDKTHTCPPCPAPEAEGAPSVFLFPPKPKDTLMISRTPEVTCVVVDVSHEDPEVKFNWYVDGVEVHNAKTKPREEQYNSTYRVVSVLTVLHQDWLNGKEYKCKVSNKALPAPIEKTISKAKGQPREPQVYTLPPSREEMTKNQVSLTCLVKGFYPSDIAVEWESNGQPENNYKTTPPVLDSDGSFFLYSKLTVDKSRWQQGNVFSCSVMHEALHNHYTQKSLSLSPG
notes: Made in CHO cells; F83S is an additional mutation found later in the clone
B8: ICOSL IgV with N52H/N57Y/Q100R and H48R/S54P, Fc fusion (Fc fusion)
chain: DTQEKEVRAMVGSDVELSCACPEGSRFDLNDVYVYWQTSESKTVVTYRIPQHSPLEYVDSRYRNRALMSPAGMLRGDFSLRLFNVTPQDEQKFHCLVLSRSLGFQEVLSVEVTLHVAANFSVGGGGSGGGGSEPKSSDKTHTCPPCPAPEAEGAPSVFLFPPKPKDTLMISRTPEVTCVVVDVSHEDPEVKFNWYVDGVEVHNAKTKPREEQYNSTYRVVSVLTVLHQDWLNGKEYKCKVSNKALPAPIEKTISKAKGQPREPQVYTLPPSREEMTKNQVSLTCLVKGFYPSDIAVEWESNGQPENNYKTTPPVLDSDGSFFLYSKLTVDKSRWQQGNVFSCSVMHEALHNHYTQKSLSLSPG
notes: Made in CHO cells. '554P' is read as S54P; also called ICOSL IgV with N52H/N57Y/Q100R and H48R/554P
B9: ICOSL ECD Truncation #7 with N52H/N57Y/Q100R/C198R and E90K/E111G (Fc fusion, not shown: a dimerising Fc or GST)
chain: DTQEKEVRAMVGSDVELSCACPEGSRFDLNDVYVYWQTSESKTVVTYHIPQHSSLEYVDSRYRNRALMSPAGMLRGDFSLRLFNVTPQDKQKFHCLVLSRSLGFQEVLSVGVTLHVAANFSVPVVSAPHSPSQDELTFTCTSINGYPRPNVYWINKTDNSLLDQALQNDTVFLNMRGLYDVVSVLRIARTPSVNIGCRIEN
notes: Made in CHO cells
B10: variant ICOSL ECD-Fc N52H/N57Y/Q100R/F172S, AAA linker, Fc C220S/E233P/L234V/L235A/G236del/S267K (SEQ ID NO: 44) (Fc fusion)
chain: DTQEKEVRAMVGSDVELSCACPEGSRFDLNDVYVYWQTSESKTVVTYHIPQHSSLEYVDSRYRNRALMSPAGMLRGDFSLRLFNVTPQDEQKFHCLVLSRSLGFQEVLSVEVTLHVAANFSVPVVSAPHSPSQDELTFTCTSINGYPRPNVYWINKTDNSLLDQALQNDTVSLNMRGLYDVVSVLRIARTPSVNIGCCIENVLLQQNLTVGSQTGNDIGERDKITENPVSTGEKNAATAAAEPKSSDKTHTCPPCPAPPVAGPSVFLFPPKPKDTLMISRTPEVTCVVVDVKHEDPEVKFNWYVDGVEVHNAKTKPREEQYNSTYRVVSVLTVLHQDWLNGKEYKCKVSNKALPAPIEKTISKAKGQPREPQVYTLPPSREEMTKNQVSLTCLVKGFYPSDIAVEWESNGQPENNYKTTPPVLDSDGSFFLYSKLTVDKSRWQQGNVFSCSVMHEALHNHYTQKSLSLSPGK
notes: Made in 293 cells; Fc or allotypes thereof
B11: variant ICOSL ECD-Fc N52H/N57Y/Q100P, AAA linker, Fc C220S/E233P/L234V/L235A/G236del/S267K (SEQ ID NO: 44) (Fc fusion)
chain: B10 chain with R100P, S172F
notes: as for B10
B12: variant ICOSL ECD-Fc N52H/N57Y/Q100P, AAA linker, Fc C220S/L234A/L235E/G237A (SEQ ID NO: 40) (Fc fusion)
chain: DTQEKEVRAMVGSDVELSCACPEGSRFDLNDVYVYWQTSESKTVVTYHIPQHSSLEYVDSRYRNRALMSPAGMLRGDFSLRLFNVTPQDEQKFHCLVLSPSLGFQEVLSVEVTLHVAANFSVPVVSAPHSPSQDELTFTCTSINGYPRPNVYWINKTDNSLLDQALQNDTVFLNMRGLYDVVSVLRIARTPSVNIGCCIENVLLQQNLTVGSQTGNDIGERDKITENPVSTGEKNAATAAAEPKSSDKTHTCPPCPAPEAEGAPSVFLFPPKPKDTLMISRTPEVTCVVVDVSHEDPEVKFNWYVDGVEVHNAKTKPREEQYNSTYRVVSVLTVLHQDWLNGKEYKCKVSNKALPAPIEKTISKAKGQPREPQVYTLPPSREEMTKNQVSLTCLVKGFYPSDIAVEWESNGQPENNYKTTPPVLDSDGSFFLYSKLTVDKSRWQQGNVFSCSVMHEALHNHYTQKSLSLSPGK
notes: as for B10
B13: variant ICOSL ECD-Fc N52H/N57Y/Q100R/F172S, AAA linker, Fc C220S/L234A/L235E/G237A (SEQ ID NO: 40) (Fc fusion)
chain: B12 chain with P100R, F172S
notes: as for B10

These binders were tested against T1, human ICOS (assay: flow cytometry, cells with human ICOS; protein from CHO).

MFI (ΔWT) [fold vs WT]	MFI [MFI]	Binder
1.1		B1
1.3		B2
1.1	110000	B3
0.9		B4
1.4	139000	B5
0.9	91400	B6
1.1		B7
1.4		B8
0.5	54600	B9

The binders below were run against T2, human CD28 (human, UniProt P10747 19-220) (assay: flow cytometry, Expi293 cells with human CD28).
T2 construct: whole, on cells
Text: (§1) Expi293 cells transfected with cognate binding partners, human CD28, ICOS and CTLA4, were used as target cells in binding studies.

MFI (ΔWT) [fold vs WT]	Binder
10.9	B10
13.3	B11
13.1	B12
12.5	B13

Each binder was assayed against T3, human CTLA-4 (human, UniProt P16410 36-223) (assay: flow cytometry, cells with human CTLA-4; protein from CHO).
T3 construct: whole, on cells
T3 sequence (P16410 36-223): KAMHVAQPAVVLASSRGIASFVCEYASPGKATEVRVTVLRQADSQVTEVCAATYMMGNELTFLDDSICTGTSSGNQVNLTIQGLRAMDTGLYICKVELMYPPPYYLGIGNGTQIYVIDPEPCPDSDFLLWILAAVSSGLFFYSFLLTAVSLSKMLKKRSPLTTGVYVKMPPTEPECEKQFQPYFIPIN

MFI (ΔWT) [fold vs WT]	MFI [MFI]	Binder
42.3		B1
40.7		B2
28.5	216000	B3
31.6		B4
17.5	133000	B5
31.1	236000	B6
27.3		B7
42.4		B8
11	83700	B9

The binders below were run against T1, human ICOS (assay: flow cytometry, Expi293 cells with human ICOS).
Procedure: Binding studies were carried out on transfected HEK293 cells generated to express the full-length mammalian (human) surface ligands, CD28, ICOS or CTLA-4, using a transient transfection system (Life Technologies, USA). As a control, binding to mock (non-transfected) cells also was assessed. For staining by flow cytometry, 200,000 cells of appropriate transient transfection or negative control (mock) were plated in 96 well round bottom plates, and, then incubated in staining buffer (PBS, phosphate buffered saline; 1% BSA, bovine serum albumin; and 0.1% sodium azide) for 20 minutes to block non-specific binding. Cells were resuspended in staining buffer containing 100 nM to 1 nM variant immunomodulatory protein in 50 μL. Mean Fluorescence Intensity (MFI) was calculated for each transfectant and negative parental line with Cell Quest Pro software (Becton Dickinson, USA) or a Hypercyt flow cytometer (Intellicyte, USA).
as §1

MFI (ΔWT) [fold vs WT]	Binder
1.3	B10
1.3	B11
1.2	B12
1.3	B13

What follows are binders tested against T3, human CTLA-4 (assay: flow cytometry, Expi293 cells with human CTLA-4).
Text: as §1

MFI (ΔWT) [fold vs WT]	Binder
20.5	B10
33.5	B11
18.2	B12
20.6	B13

The binders below were run against T2, human CD28 (assay: flow cytometry, cells with human CD28; protein from CHO).

MFI (ΔWT) [fold vs WT]	MFI [MFI]	Binder
46.6		B1
62.4		B2
50	86300	B3
52.8		B4
34.3	59200	B5
49	84600	B6
51.1		B7
43.6		B8
22.5	38900	B9
